Laboratory results published in US20100099627A1 (YEDA RESEARCH AND DEVELOPMENT, published 2010).

T1: APA-GFP-ERK2, P63086
T1 chain: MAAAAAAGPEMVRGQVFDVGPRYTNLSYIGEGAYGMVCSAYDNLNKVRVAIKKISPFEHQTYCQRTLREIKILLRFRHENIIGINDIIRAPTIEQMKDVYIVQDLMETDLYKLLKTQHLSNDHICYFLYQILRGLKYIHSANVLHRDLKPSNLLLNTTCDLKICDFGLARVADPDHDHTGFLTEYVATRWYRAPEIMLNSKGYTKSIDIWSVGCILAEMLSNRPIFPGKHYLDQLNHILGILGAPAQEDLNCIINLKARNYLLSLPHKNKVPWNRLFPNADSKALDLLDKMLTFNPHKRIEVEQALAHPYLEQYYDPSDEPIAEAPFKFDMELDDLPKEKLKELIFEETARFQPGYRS

T2: TEY-AAA-ERK2, P63086
T2 chain: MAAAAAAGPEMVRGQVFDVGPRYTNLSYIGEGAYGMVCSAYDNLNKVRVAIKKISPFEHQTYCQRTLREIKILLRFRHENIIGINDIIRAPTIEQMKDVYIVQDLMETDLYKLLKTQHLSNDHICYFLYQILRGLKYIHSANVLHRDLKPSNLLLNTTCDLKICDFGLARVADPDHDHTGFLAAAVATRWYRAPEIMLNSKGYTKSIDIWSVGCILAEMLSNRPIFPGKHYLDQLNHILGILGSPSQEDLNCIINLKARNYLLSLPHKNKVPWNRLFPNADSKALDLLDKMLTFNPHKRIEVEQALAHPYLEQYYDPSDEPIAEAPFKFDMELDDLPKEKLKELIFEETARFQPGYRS

T3: WT-GFP-ERK2, P63086
T3 chain: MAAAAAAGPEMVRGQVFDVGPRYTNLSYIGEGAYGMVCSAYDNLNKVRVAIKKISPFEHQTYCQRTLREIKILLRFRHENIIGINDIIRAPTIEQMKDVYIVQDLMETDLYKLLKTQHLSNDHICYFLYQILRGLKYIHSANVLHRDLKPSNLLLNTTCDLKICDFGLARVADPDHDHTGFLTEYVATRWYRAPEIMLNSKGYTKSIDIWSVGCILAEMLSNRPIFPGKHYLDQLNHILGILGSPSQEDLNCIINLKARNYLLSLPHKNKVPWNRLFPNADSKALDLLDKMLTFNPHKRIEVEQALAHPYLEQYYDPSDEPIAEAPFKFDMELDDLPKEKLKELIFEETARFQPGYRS


Tests used:
[1] = target: T1, APA-GFP-ERK2, P63086
[2] = target: T2, TEY-AAA-ERK2, P63086
[3] = target: T3, WT-GFP-ERK2, P63086
[4] = target: T4, importin-β (UniProt Q14974 1-876); assay: co-immunoprecipitation with anti GFP Ab from HeLa cells, Western blot with anti importin-β Ab
T4 construct: also called Impβ
Procedure: FIG. 9A. […] The extracts of the treated cells were then subjected to coimmunoprecipitation using A/G beads pre-conjugated with anti GFP Ab and mild washes. […] The equal amount of immunoprecipitated ERKs was determined with anti GFP (αGFP; IP) Ab. FIG. 19B. […] HeLa cells overexpressing 2GFP, 2GFP-SPS, 2GFP-APA and 2GFP-EPE constructs were subjected to coimmunoprecipitation as described in FIG. 19A (without EGF stimulation). FIG. 19C. […] This was followed by mild washing, and the beads were then subjected to Western blot analysis using anti His (αHis) and anti αGFP Abs.

binding result [4] | Binder | ^32P incorporation, in vitro kinase assay (reduction against GFP-ERK2) [1] | ^32P incorporation, in vitro kinase assay (reduction against GFP-ERK2) [2] | ^32P incorporation, in vitro kinase assay [3]
 | active GST-ERK2 (protein) MAAAAAAGPEMVRGQVFDVGPRYTNLSYIGEGAYGMVCSAYDNLNKVRVAIKKISPFEHQTYCQRTLREIKILLRFRHENIIGINDIIRAPTIEQMKDVYIVQDLMETDLYKLLKTQHLSNDHICYFLYQILRGLKYIHSANVLHRDLKPSNLLLNTTCDLKICDFGLARVADPDHDHTGFLTEYVATRWYRAPEIMLNSKGYTKSIDIWSVGCILAEMLSNRPIFPGKHYLDQLNHILGILGSPSQEDLNCIINLKARNYLLSLPHKNKVPWNRLFPNADSKALDLLDKMLTFNPHKRIEVEQALAHPYLEQYYDPSDEPIAEAPFKFDMELDDLPKEKLKELIFEETARFQPGYRS | that of SPS-APA was reduced by ˜80% | The phosphorylation of TEY-AAA was reduced by ˜25% | ^32P incorporation to GFP-ERK2 was detected mainly when this protein was incubated with Act-ERK2
no binding | WT-GFP-ERK2 (enzyme, UniProt P63086 1-358, looked up, SPS domain (Ser244, Ser246) and TEY motif phosphorylated upon stimulation of the cells (EGF, TPA, VOOH); the state depends on the cell treatment named in each row, Overexpressed in HeLa or COS7 cells and immunoprecipitated with anti GFP Ab; also called WT-ERK2; WT-ERK; not shown: GFP encoded by pEGFP C1 (Clontech)) MAAAAAAGPEMVRGQVFDVGPRYTNLSYIGEGAYGMVCSAYDNLNKVRVAIKKISPFEHQTYCQRTLREIKILLRFRHENIIGINDIIRAPTIEQMKDVYIVQDLMETDLYKLLKTQHLSNDHICYFLYQILRGLKYIHSANVLHRDLKPSNLLLNTTCDLKICDFGLARVADPDHDHTGFLTEYVATRWYRAPEIMLNSKGYTKSIDIWSVGCILAEMLSNRPIFPGKHYLDQLNHILGILGSPSQEDLNCIINLKARNYLLSLPHKNKVPWNRLFPNADSKALDLLDKMLTFNPHKRIEVEQALAHPYLEQYYDPSDEPIAEAPFKFDMELDDLPKEKLKELIFEETARFQPGYRS |  |  | 
no binding | APA-GFP-ERK2 (enzyme, UniProt P63086 1-358, looked up, also called GFP-ERK244/6A; ERK-AA; not shown: GFP encoded by pEGFP C1 (Clontech)) MAAAAAAGPEMVRGQVFDVGPRYTNLSYIGEGAYGMVCSAYDNLNKVRVAIKKISPFEHQTYCQRTLREIKILLRFRHENIIGINDIIRAPTIEQMKDVYIVQDLMETDLYKLLKTQHLSNDHICYFLYQILRGLKYIHSANVLHRDLKPSNLLLNTTCDLKICDFGLARVADPDHDHTGFLTEYVATRWYRAPEIMLNSKGYTKSIDIWSVGCILAEMLSNRPIFPGKHYLDQLNHILGILGAPAQEDLNCIINLKARNYLLSLPHKNKVPWNRLFPNADSKALDLLDKMLTFNPHKRIEVEQALAHPYLEQYYDPSDEPIAEAPFKFDMELDDLPKEKLKELIFEETARFQPGYRS |  |  | 
no binding | EPE-GFP-ERK2 (enzyme, UniProt P63086 1-358, looked up, also called GFP-ERK244/6E; ERK-EE; not shown: GFP encoded by pEGFP C1 (Clontech)) MAAAAAAGPEMVRGQVFDVGPRYTNLSYIGEGAYGMVCSAYDNLNKVRVAIKKISPFEHQTYCQRTLREIKILLRFRHENIIGINDIIRAPTIEQMKDVYIVQDLMETDLYKLLKTQHLSNDHICYFLYQILRGLKYIHSANVLHRDLKPSNLLLNTTCDLKICDFGLARVADPDHDHTGFLTEYVATRWYRAPEIMLNSKGYTKSIDIWSVGCILAEMLSNRPIFPGKHYLDQLNHILGILGEPEQEDLNCIINLKARNYLLSLPHKNKVPWNRLFPNADSKALDLLDKMLTFNPHKRIEVEQALAHPYLEQYYDPSDEPIAEAPFKFDMELDDLPKEKLKELIFEETARFQPGYRS |  |  | 
